According to the RNAGym collection of RNA variant scans (doi:10.1073/pnas.2313332121):

B1: TPR t1 (parent)
chain: GACCAAUCUGCCCUCAGAGCUCGAGAACAUCUUCGGAUGCAGAGGAGGCAGGCUUCGGUGGCGCGAUAGCGCCAACGUCCUCAACCUCCAAUGCAUCCCACCACAUGAUGAUGCCUGAAGAGCCUUGGUUUUUUG

Variants of: B1
Test: polymerase ribozyme fitness, log enrichment relative to wild type (log ratio); higher = more active; in vitro selection for triplet polymerase activity
Summary of the method: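 To select mutant libraries of each subunit of a heterodimeric triplet polymerase ribozyme, built by PCR and transcribed, each was annealed with a biotinylated primer, partner subunit and triplets, then incubated frozen at −7 °C. Extended constructs were gel-excised, captured on streptavidin beads and amplified by RT-PCR, in one round carried out in triplicate. Illumina sequencing of input and output libraries kept genotypes with ≥10 input reads and ≥1 read per output. Fitness is the base-2 logarithm of genotype enrichment relative to wild-type enrichment, from inverse-variance-weighted replicate averages.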

Variant	polymerase ribozyme fitness (log ratio)
GACCAAUCUGCCCUCAGAGCUCGAGAACAUCUUCGGAUGCAGAGGAGGCAGGCUUCGGUAGCGCGAUAGCGCCAACGUCCUCAACCUCCAAUGCAUCCCACCACAUGAUGAUGCCUGAAGAGCCUUAGUUUUUUG [G60A G127A]	-0.964
GACCAAUCUGCCCUCAGAGCUCGAGAACAUCUUCGGAUGCAGAGGAGGCAGGCUUCGGUAGCGCGAUAGCGCCAACGUCCGCAACCUCCAGUGCAUCCCACCACAUGAUGAUGCCCGAAGAGCCUUGGUUUUUUG [G60A U81G A91G U116C]	-7.03
GACCAAUCUGCCCUCAGAGCUCGAGAACAUCUUCGGAUGCAGAGGAGGCAGGCUUCGGUAGCGCGAUAGCGCCAACGUCCUCAACCGCCAAUGCAUCCCACGACAUGAUGAUACCUGAAGAGCCUUGGUUUUUUG [G60A U87G C102G G113A]	-6.32
GACCAAUCUGCCCUCAGAGCUCGAGAACAUCUUCGGAUGCAGAGGAGGCAGGCUUCGGUCGCGCGUUAGCGCCAACGUCCUCAACCUCCAAUGCAUCCCACCACAUGAUGAUACCUGAAGAGCCUCGGUUUUUUG [G60C A66U G113A U126C]	-4.03
GACCAAUCUGCCCUCAGAGCUCGAGAACAUCUUCGGAUGCAGAGGAGGCAGGCUUCGGUAGCGCGAUAGCGCCAACGUCCUCAACCUCCAAUCCAUCCCACCACAUGAUGAUGCCUGAAGAGCCUUGGUUUUUUG [G60A G93C]	-1.2
GACCAAUCUGCCCUCAGAGCUCGAGAACAUCUUCGGAUGCAGAGGAGGCAGGCUUCGGUAGCGCGAUAGCGCCAACGUCCUCAACCUCCAAUGCAUCCCACCACAUGAAGAUGCCUGAAGAGCCUUGGUUUUGUG [G60A U109A U133G]	-5.4
GACCAAUCUGCCCUCAGAGCUCGAGAACAUCUUCGGAUGCAGAGGAGGCAGGCUUCGGUCGCGCGAUAGCGCCAACGUCCUCAACCUCCAAUGCGUCCCACCACAUGAUGAUGCCUGAAAAGCCUUGGUCUUUUG [G60C A95G G120A U130C]	0.59
GACCAAUCUGCCCUCAGAGCUCGAGAACAUCUUCGGAUGCAGAGGAGGCAGGCUUCGGUAGCGCGAUAGCGCCAACGUCCUCAACCUCCAAUGCAUCCCACCACAUGAUGAACCCUGAAGAGCCUUGGUUUUUUG [G60A U112A G113C]	-1.56
GACCAAUCUGCCCUCAGAGCUCGAGAACAUCUUCGGAUGCAGAGGAGGCAGGCUUCGGUAGCGCGAUAGCGCCAACGUCCUCAACCACCAAUGCAUCCCACCACAUGAUGAUGCCUGAAGAGCCUUGGUUUUUUG [G60A U87A]	-0.0639
GACCAAUCUGCCCUCAGAGCUCGAGAACAUCUUCGGAUGCAGAGGAGGCAGGCUUCGGUAGCGCGAUAGCGCCAACGUCCUCAACCUCCAAUGCAUCCCACCACAUGAUGAUCCCUGAAGAGCCUUGGUUUUUUG [G60A G113C]	-2.12
GACCAAUCUGCCCUCAGAGCUCGAGAACAUCUUCGGAUGCAGAGGAGGCAGGCUUCGGUAGCGCGAUACCGCCAACGUCGUCAACCUCCAAUGCAUCCCACCACAUGAUUAUGCCUGAACAGCCUUGGUUUUUUG [G60A G69C C80G G110U G120C]	-6.82
GACCAAUCUGCCCUCAGAGCUCGAGAACAUCUUCGGAUGCAGAGGAGGCAGGCUUCGGUAGCGCGAUAGCGCCAACGUCCUCAACCUCCAAUGCAUCCCACCACAUGAUGAUGCCUGAAAAGCCUUGGUUUUUUG [G60A G120A]	0.658
GACCAAUCUGCCCUCAGAGCUCGAGAACAUCUUCGGAUGCAGAGGAGGCAGGCUUCGGUAGCGCGAUAGCGCCAACGUCCUCAACCUCCAAUGCAUCCCACCACAUGAAGAUGCCUGAAGAGCCUUGGUUUUUUG [G60A U109A]	-5.33
GACCAAUCUGCCCUCAGAGCUCGAGAACAUCUUCGGAUGCAGAGGAGGCAGGCUUCGGUAGCGCGAUAGCGCCAACGUCCUCAACCUCCAAUACAUCCCACCACAUGAUGAUGCCUGAAGAGCCUUGGUUAUUUG [G60A G93A U131A]	-0.952
GACCAAUCUGCCCUCAGAGCUCGAGAACAUCUUCGGAUGCAGAGGAGGCAGGCUUCGGUAGCGCGAUAGCGCCAACGACCUCAACCUCCAAUGCAUCCCACCACAUGAUGAUGCCUGAAGAGUCUUGGUUUUUUG [G60A U78A C123U]	0.832
GACCAAUCUGCCCUCAGAGCUCGAGAACAUCUUCGGAUGCAGAGGAGGCAGGCUUCGGUAGCGCGAUAGCGCCAACGUCCUCAACCUCCAAUACAUCCCACCACAUGAUGAUGCCUGAAAAGCCUUGGUUUUUUG [G60A G93A G120A]	-0.129
GACCAAUCUGCCCUCAGAGCUCGAGAACAUCUUCGGAUGCAGAGGAGGCAGGCUUCGGUCGCGCGAUAGCGCCAACGUCCUCAACCUCCAAUGCAUCCCACCACAUGAUGAUGCCUGAAGUGCCUUGGUUUUUUG [G60C A121U]	1.85
GACCAAUCUGCCCUCAGAGCUCGAGAACAUCUUCGGAUGCAGAGGAGGCAGGCUUCGGUAGCGCGAUAGCGCCAACGUCCUCAACCUCCAAUGCAUCCCACCACAUGAUGAUGCCUGAACAGCCUUGUUUUUUUG [G60A G120C G128U]	0.061
GACCAAUCUGCCCUCAGAGCUCGAGAACAUCUUCGGAUGCAGAGGAGGCAGGCUUCGGUAGCGCGAUAGCGCCAACGGCCUCAACCUCCAAUGCAUCCCACCACAUGAUGAUCCCUGAAGAGCCUUGGUUUUGUG [G60A U78G G113C U133G]	-3.73
GACCAAUCUGCCCUCAGAGCUCGAGAACAUCUUCGGAUGCAGAGGAGGCAGGCUUCGGUAGCGCGAUAGCGCCAACGUCCUCAACCUCCAAUGCAUCCCACCACAUGAUGAUGCCUGAAUCGCCUUGGUUUUUUG [G60A G120U A121C]	0.445
GACCAAUCUGCCCUCAGAGCUCGAGAACAUCUUCGGAUGCAGAGGAGGCAGGCUUCGGUAGCGCGAUAGCGCCAACGUCCUCAACCUCCAAUGCAUCCCACCACAUAAUGAUGCCUGAAGAGCCUUGGUUUUUUG [G60A G107A]	-2.9

Variant	polymerase ribozyme fitness (log ratio)
GACCAAUCUGCCCUCAGAGCUCGAGAACAUCUUCGGAUGCAGAGGAGGCAGGCUUCGGUAGCGCGAUAGCGCCAACGUCCUCAACCUCCAAUGCAUCCCACCACAUUAUGAUGCCUGAAGAGCCUUGGUUUUUUG [G60A G107U]	-4.12
GACCAAUCUGCCCUCAGAGCUCGAGAACAUCUUCGGAUGCAGAGGAGGCAGGCUUCGGUAGCGCGAUAGCGCCAACGUCCUCAACCUCCAAUGCAUCCCACCACAUGAUGAUGCCUGAAGAGCCUUGGAUUUUUG [G60A U129A]	-0.603
GACCAAUCUGCCCUCAGAGCUCGAGAACAUCUUCGGAUGCAGAGGAGGCAGGCUUCGGUAGCGCGAUAGCGCCAACGUCCUCAACCUCCAAUGCAUCCCACCACAUGAUGAUGCCUGAAGAGCCUUGGUUAUUUG [G60A U131A]	0.546
GACCAAUCUGCCCUCAGAGCUCGAGAACAUCUUCGGAUGCAGAGGAGGCAGGCUUCGGUCGCGCGAUAGCGCCAACGUCCUCAACCUCCAAUGCAUCCCUCCACAUGAUGAUGACUGAAGAGCCUUGGUUUUUUG [G60C A100U C114A]	-3.1
GACCAAUCUGCCCUCAGAGCUCGAGAACAUCUUCGGAUGCAGAGGAGGCAGGCUUCGGUAGCGCGAUAGCGCCAACGUCCUCAACCUCCAAUGCAUCCCACCACAUGAUGAUGCCUAAAGAGCCUUGGUUUUUUG [G60A G117A]	-1.29
GACCAAUCUGCCCUCAGAGCUCGAGAACAUCUUCGGAUGCAGAGGAGGCAGGCUUCGGUAGCGCGAUAGCGCCAACGUCCUCAACCUCCAAUGCAUCCCACCACAUGAUAAUGCCUGAAGAGCCUUGGUUUUUUG [G60A G110A]	-1.52
GACCAAUCUGCCCUCAGAGCUCGAGAACAUCUUCGGAUGCAGAGGAGGCAGGCUUCGGUAGCGCGAUAGCGCCAACGUCCUCAACCUCCAAUGCAUCCCACCACAUGAUGAUGCCUGAAGAGCCGUGGUUUUUUG [G60A U125G]	-0.67
GACCAAUCUGCCCUCAGAGCUCGAGAACAUCUUCGGAUGCAGAGGAGGCAGGCUUCGGUAGCGCGAUAGCGCCAACGUCCUCAACCUCCAAUGCAUCCCACCACAUGAUGAUGCCUGAAGAGCCUUGUUUUUUUG [G60A G128U]	-1.57
GACCAAUCUGCCCUCAGAGCUCGAGAACAUCUUCGGAUGCAGAGGAGGCAGGCUUCGGUAGCGCGAUAGCGCCAACGUCCUCAACCUCCAAUGCAUCCCACCACAUGAUGAUGCCUGAAGAGCCUUGCUUUUUUG [G60A G128C]	-2.6
GACCAAUCUGCCCUCAGAGCUCGAGAACAUCUUCGGAUGCAGAGGAGGCAGGCUUCGGUAGCGCGAUAGCGCCAACGUCCUCAACCACCAAUGCAUCCCACCACAUGAUGAUGCCUGAGGAGCCCUGGUUUUUUG [G60A U87A A119G U125C]	-0.987
GACCAAUCUGCCCUCAGAGCUCGAGAACAUCUUCGGAUGCAGAGGAGGCAGGCUUCGGUAGCGCGAUAGCGCCAACGUCCUCAACCUCCAAUGCAUCCCACCACAUGAUGAUGCCUGAAGAGCCUUGGUCUUUUG [G60A U130C]	-0.0253
GACCAAUCUGCCCUCAGAGCUCGAGAACAUCUUCGGAUGCAGAGGAGGCAGGCUUCGGUAGCGCGAUAGCACCAACGUCCUCAACCUCCUAUGAAUCCCACCACAUGAUCAUGCCUGAAGAGCCUUGGUUUUUUG [G60A G71A A90U C94A G110C]	-6.47
GACCAAUCUGCCCUCAGAGCUCGAGAACAUCUUCGGAUGCAGAGGAGGCAGGCUUCGGUCGCGCGAUGGCGCCAACGUCCUCAACCUCCAAUGCAUCCCACCACAUGAUGAUGCCUGAAGAGCCUUGGUUUUUUG [G60C A68G]	-4.8
GACCAAUCUGCCCUCAGAGCUCGAGAACAUCUUCGGAUGCAGAGGAGGCAGGCUUCGGUAGCGCGAUAGCGCCAACGACCUCAUCCUCCAAUACAUCCCACAACAUGAUGAUGCCUGAAGAGCCUUGGUUUUUUG [G60A U78A A84U G93A C102A]	-5
GACCAAUCUGCCCUCAGAGCUCGAGAACAUCUUCGGAUGCAGAGGAGGCAGGCUUCGGUCGCGCGAUAGCGCCAACGUCCUCACCUUCCAAUGCAUCCCACCACAUGAUGAUGCCUGAAGAGCCUUGGUUUUUUG [G60C A84C C86U]	-1.01
GACCAAUCUGCCCUCAGAGCUCGAGAACAUCUUCGGAUGCAGAGGAGGCAGGCUUCGGUCGCGCGAUAGCGCCAACGUCCUCAACCUCCAAUGCAUCCCACCACAUGAUGAUGCCUGAAGAGCCUUGGUUUUUUG [G60C]	-0.366
GACCAAUCUGCCCUCAGAGCUCGAGAACAUCUUCGGAUGCAGAGGAGGCAGGCUUCGGUCGCGCGAUAGCGCCAACGUCCUCAACCUCCAAUGCAUCCCACCACUUGAUGAUGCCUGAAGAGCCUUGGUUUUUUG [G60C A105U]	-3.07
GACCAAUCUGCCCUCAGAGCUCGAGAACAUCUUCGGAUGCAGAGGAGGCAGGCUUCGGUAGCGCGAUAUCGCCAACGUCCUCAACCUCCAAUGCAUCCCACCACAUGAUGAUGCCUGAAGCUCCUUGGUUUUUUG [G60A G69U A121C G122U]	-0.0689
GACCAAUCUGCCCUCAGAGCUCGAGAACAUCUUCGGAUGCAGAGGAGGCAGGCUUCGGUAGCGCGAUAGCUCCAACGUCCUCAACCUCCAAUGCAUCCCACCACAUGAUGAUGCCUGAAGAGCCUUGGUUUUUUG [G60A G71U]	-4.5
GACCAAUCUGCCCUCAGAGCUCGAGAACAUCUUCGGAUGCAGAGGAGGCAGGCUUCGGUAGCGCGAUAGCGCCAACGUCCUCAACCGCCAAUGCAUCCCAUCACAUGAUGAUGCCUGAAGAGCCUUGGUUUUUUG [G60A U87G C101U]	0.254
GACCAAUCUGCCCUCAGAGCUCGAGAACAUCUUCGGAUGCAGAGGAGGCAGGCUUCGGUCGCGCGAUAGCGCCAACGUCCUCAUCCUCCAAUGCAUCCCACCACAUGAUGAUGCCUGAAGAGCCUUGGUUUUUUG [G60C A84U]	-0.735
